Read-outs that look alike come from different tables or passages of the source.

For PDHA1: K83R, where the note is “other: succinylation at K83”, the degradation_or_half_life entry is given as “no change”, the enzymatic_activity result is recorded as “decreases” and the other result is “increases”.

Regarding PDHA1: K83R S293A (compared with K83R), where the note is “phosphorylation at S293”, the enzymatic_activity entry is reported as “increases”.

The record behind these values is article PMC11968997.
